Experimental data reported in article PMC10483858 (Molecular Cancer, 2023).
Where no end group is shown, it is not given here. [ ]: non-standard residue; d: D form. TrpNAc = Trp with an acetic acid moiety; Hyp = O=C(O)[C@@H]1C[C@@H](O)CN1; NMeNle = CCCC[C@H](NC)C(=O)O; NMeA = CN[C@@H](C)C(=O)O; Dab = NCC[C@H](N)C(=O)O; Scc = not defined here

Target: T1, PD-L1 of the commercial HTRF PD-1/PD-L1 interaction assay
T1 construct: PD-L1 as supplied in the Cisbio HTRF kit
Assay: AlphaScreen or HTRF; commercial HTRF PD-1/PD-L1 interaction assay (Cisbio, France); pAC65 varied; data fitted with Hill's model
Details: both partners purified

B1: pAC65 macrocyclic peptide (peptide)
chain: Y[NMeA]NP[Ala‑NH2]L[Hyp]W[Dab][TrpNAc][NMeNle][NMeNle]L[Scc]G-NH2
modifications: bridge (positions not given here); not fully specified (bridges); reading uncertain; also: macrocyclic ring, places not given here
IC50: 1.8 ± 0.16 nM
